Biological target: APOBEC3B (A3B) C-terminal domain (ctd)-Cas9n-Ugi (human | S. pyogenes | not stated)

B1: Epstein-Barr virus ribonucleotide reductase large subunit, BORF2 (natural protein)
chain: MATTSHVEHELLSKLIDELKVKANSDPEADVLAGRLLHRLKAESVTHTVAEYLEVFSDKFYDEEFFQMHRDELETRVSAFAQSPAYERIVSSGYLSALRYYDTYLYVGRSGKQESVQHFYMRLAGFCASTTCLYAGLRAALQRARPEIESDMEVFDYYFEHLTSQTVCCSTPFMRFAGVENSTLASCILTTPDLSSEWDVTQALYRHLGRYLFQRAGVGVGVTGAGQDGKHISLLMRMINSHVEYHNYGCKRPVSVAAYMEPWHSQIFKFLETKLPENHERCPGIFTGLFVPELFFKLFRDTPWSDWYLFDPKDAGDLERLYGEEFEREYYRLVTAGKFCGRVSIKSLMFSIVNCAVKAGSPFILLKEACNAHFWRDLQGEAMNAANLCAEVLQPSRKSVATCNLANICLPRCLVNAPLAVRAQRADTQGDELLLALPRLSVTLPGEGAVGDGFSLARLRDATQCATFVVACSILQGSPTYDSRDMASMGLGVQGLADVFADLGWQYTDPPSRSLNKEIFEHMYFTALCTSSLIGLHTRKIFPGFKQSKYAGGWFHWHDWAGTDLSIPREIWSRLSERIVRDGLFNSQFIALMPTSGCAQVTGCSDAFYPFYANASTKVTNKEEALRPNRSFWRHVRLDDREALNLVGGRVSCLPEALRQRYLRFQTAFDYNQEDLIQMSRDRAPFVDQSQSHSLFLREEDAARASTLANLLVRSYELGLKTIMYYCRIEKAADLGVMECKASAALSVPREEQNERSPAEQMPPRPMEPAQVAGPVDIMSKGPGEGPGGWCVPGGLEVCYKYRQLFSEDDLLETDGFTERACESCQ
**Q.** For B1, which inhibition of A3Bctd CBE editing of the chromosomally integrated TC reporter (eGFP) in 293T cells, flow cytometry, 72 h post-transfection is on record?
**A.** 4.9 fold
